Reference: the RNAGym collection of RNA variant scans (doi:10.1073/pnas.2313332121)
This sample holds only a part of the variants without activity.

B1: TPR 5TU (parent)
chain: GGAUCUUCUCGAUCUAACAAAAAAGACAAAUCUGCCACAAAGCUUGAGAGCAUCUUCGGAUGCAGAGGCGGCAGCCUUCGGUGGCGCGAUAGCGCCAACGUUCUCAACUAUGACACGCAAAACGCGUGCUCCGUUGAAUGGAGUUUAUCAUG

Variants of: B1
Assay: polymerase ribozyme fitness, log enrichment relative to wild type (log ratio); higher = more active; in vitro selection for triplet polymerase activity
Summary of the method: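 Fitness compares each genotype's enrichment to that of the wild type on a logarithmic scale, averaging replicates with inverse-variance weights. The logarithm is base 2. Enrichment came from Illumina sequencing of input and output libraries after one triplicate round of in vitro selection, which included frozen incubation at −7 °C, of PCR-built, transcribed mutant libraries of each subunit of a heterodimeric triplet polymerase ribozyme. Only genotypes with ≥10 input reads and ≥1 read per output were kept.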

Row | Variant | polymerase ribozyme fitness (log ratio)
1 | C38U U53A | -1.72
2 | A39C G80A A97U G126U U144A | ≤ -4.2
3 | A37U C54A C96G | -3.53
4 | C38A A60U G84A U134C | -1.6
5 | A37C C108G | ≤ -4.2
6 | C38U A47G U53A G141C | -2.86
7 | C38U C85U A107U C125G A147C | ≤ -4.2
8 | C36U U53A A119G | -1.17
9 | A37C U45A C79U A97U U144A | ≤ -4.2
10 | A39U U101G | -2.05
11 | A39C A40G G50C C75A C85G | ≤ -4.2
12 | C38U C149U | -2.71
13 | A37C A97G | 0.477
14 | A37U A49U U55A U56A U127A | ≤ -4.2
15 | C38U U45A U55C U101G | ≤ -4.2
16 | C38U G84A U139A | ≤ -4.2
17 | C38U U82A U144A C149G | ≤ -4.2
18 | A37G C93U C116G | -2.65
19 | A39G A49G G70A C87A G94A C99G G126A | ≤ -4.2
20 | A37C U55A C72U G88C A98G C103G U127C U134A | ≤ -4.2
21 | A39U G83C | -2.01
22 | A37C G80A G86A | -2.42
23 | A37U U44A G86C | ≤ -4.2
24 | A37C U56A C85A C99G A107G G124A | ≤ -4.2

Row | Variant | polymerase ribozyme fitness (log ratio)
25 | A39C C93U | -3.4
26 | A37U A52U C57U G74A C76U C93U C95U U109G | ≤ -4.2
27 | A39G C96U C116U | -1.75
28 | A37U C114U A115G A120U | -3.83
29 | A37C C72G C79A | ≤ -4.2
30 | A37G C87U | -2.16
31 | C38G G92C C95U | -1.62
32 | C38U A49C A60C U82G G83A | ≤ -4.2
33 | A39G G50A G81C U82C G92C G140A U151C G152C | ≤ -4.2
34 | A39U A40U C54U G84C C85A G92C G128A | ≤ -4.2
35 | A37U U61A C85U U134A | -3.78
36 | C38U G117U | 0.325
37 | A39C G80U C114U | ≤ -4.2
38 | A37U A113U C116U G136C | ≤ -4.2
39 | C38U U61G C85A G94C C123A | -1.29
40 | A39G C54U C85U | -1.83
41 | A37G G50U A97C A137G | -3.75
42 | A37U A40C G68C G86U C95U G136A A137C | ≤ -4.2
43 | A37C C54U C96U | -0.249
44 | C38U U55A G59C U135C | -1.98
45 | C38U A49C A66G A138U U144C | ≤ -4.2
46 | A39U A49C U55A C87U C116G | ≤ -4.2
47 | A39G A52U U56A C75U U78G U104A U144C | ≤ -4.2
48 | C38U A73G C103A | -3.99

Row | Variant | polymerase ribozyme fitness (log ratio)
49 | C38A C93A G136A | -1.47
50 | C36U G81A C95G C96A C99U C149G | ≤ -4.2
51 | C38A C76A A97G U134G | -3.3
52 | C38U A120U A142U | -0.329
53 | C36U C103G | -3.78
54 | A37C C69G G70A C116A | -3.56
55 | C38A G94A | -0.134
56 | A39C C54G G58C G117U G124U U134C | ≤ -4.2
57 | C38G C75G G84C C103A | ≤ -4.2
58 | A37C C96U | -1.09
59 | A37U C51U A97C | -2.02
60 | A39U C103G | -4.14
61 | A37C A41C C72A C93U C125U | ≤ -4.2
62 | A39G C87A C108U U135C | ≤ -4.2
63 | A39G A41G G46C C51G U56A A60C C72U A97G U111C C125A | ≤ -4.2
64 | C38U C57G C75U G86A U148A | ≤ -4.2
65 | A37U A60U C75U C96A U111A | ≤ -4.2
66 | A37G C123U | -1.8
67 | A39U G62A | -2.58
68 | C38A G83A | -0.746
69 | A39U A60U U146A | -3.58
70 | A37C G86U A120U U146G | -3.9
71 | A39C A41C G65A C96A C103A U111G | ≤ -4.2
72 | A37G C54U | -2.05

Row | Variant | polymerase ribozyme fitness (log ratio)
73 | A37G U145G | -2.35
74 | C38A U61A C96G | -2.38
75 | A39C C57G A89U A97G | -3.41
76 | C38A U109A C114U C116G | ≤ -4.2
77 | C38U G84U A91U | ≤ -4.2
78 | A39G G84U U127A | ≤ -4.2
79 | C38U A52C A120U | -1.22
80 | A37C A49C G81A G92C A106G C108A A115U A137U G143U | ≤ -4.2
81 | C36U G62A A91C C96G A113U | ≤ -4.2
82 | A39C G86U | -4.18
83 | A39G A40G A41U G58A G59U U61A C79A U144A G152C | ≤ -4.2
84 | A37C G50U A52C U90C G94C C116U | ≤ -4.2
85 | A39C G68A A89G G128U A138G | ≤ -4.2
86 | A39C A64G C75G C85U G124A | ≤ -4.2
87 | A39G A41C | -1.44
88 | A37G G67A C79G | ≤ -4.2
89 | C38A A66G G70A | ≤ -4.2
90 | C38U C85U U146G | -0.571
91 | A37C C87U | -0.492
92 | A37C U55A | 0.0873
93 | A39G A41G A73G G86C G92U | ≤ -4.2
94 | A39U A97U A119C | -3.36
95 | A37G C72U A97G U102G C118U | ≤ -4.2
96 | A37G C57G A97G | -2.57

Row | Variant | polymerase ribozyme fitness (log ratio)
97 | A37C C38U U53A A91G | -3.98
98 | C38U G70A | -2.9
99 | A39U U61A A64C G86C | ≤ -4.2
100 | C38U A73U C87U C96A A122G U145A | -2.54
101 | A39U U102C | -4.01
102 | A37C C38U G71A U109G C123G | ≤ -4.2
103 | C38U C93U | -1.06
104 | A39U C54U C87A C99A G133U | ≤ -4.2
105 | C38G A49C C76G C93U C125A U135A G143C U144A | ≤ -4.2
106 | C38G G86U C118U | -2
107 | A39C U44C C93U C108G A121C U139G | ≤ -4.2
108 | A39U C43U U61A U135G G136A | ≤ -4.2
109 | A37U C72A C95U | ≤ -4.2
110 | C38U G126U | -0.118
111 | A37C A52G | -0.00493
112 | A37C A40G A52U A60G G70C G86U A119C | ≤ -4.2
113 | A37C A52G U82C C85G C95U C105U A142C A150G | ≤ -4.2
114 | C36U G58A A119G G140A | -4.18
115 | A39G A49U U55A U56A A91U | ≤ -4.2
116 | C38U U101G U135A | -0.00114
117 | A37C A52C U53A G92A | ≤ -4.2
118 | C38U A73U C93U A107U G117U | ≤ -4.2
119 | C38U C95G A120U G152A | -3.59
120 | C38A U44A A47U G86U C87G G100A A107G C118U | ≤ -4.2

Row | Variant | polymerase ribozyme fitness (log ratio)
121 | C38U C95G | -1.3
122 | A40C | 0.603
123 | A37C G86C | -3.09
124 | C38U A47U C54A A73G U78A A91U C114A A115U C116U G136C U146G | ≤ -4.2
125 | A37G C93G A97C C116A | ≤ -4.2
126 | A40C A52C | -1.04
127 | A37C G92U | -0.276
128 | C38U G94A | -0.383
129 | A39C G94A | -2.88
130 | C38U A52G G70U C85U G117U | -3.27
131 | C38U G59C G81C C95G C116G | -1.71
132 | C36U G42C U53A G59A U78A C87U | ≤ -4.2
133 | A39U U53A U56C A60C U61A G86U A89G | -4.17
134 | A39C C149U | -2.97
135 | A39G U55A C75G C87U A89U C99U C116U A142U | ≤ -4.2
136 | C36U U56G A60C U61G C79U C93U C99U G112C U144A A150C | ≤ -4.2
137 | C38U C51U C76A C79A A97U G100A C103G A106G A120G | ≤ -4.2
138 | A39G A47C | -1.49
139 | C36U G143A | -2.3
140 | A37C A49C G124A U130G | ≤ -4.2
141 | C38U U53A U61A | -1.44
142 | A37G A47G U101C | -2.53
143 | C36U C114U | -3.21
144 | A39U U53A C85A | ≤ -4.2

Row | Variant | polymerase ribozyme fitness (log ratio)
145 | A40C A49U A52U A60G G83U | ≤ -4.2
146 | C38U G62C G94U | -3.3
147 | A37U G94A U104G | -2.92
148 | A37C C43U G68U A73C C79G C95U U148G | ≤ -4.2
149 | C38A C51U C95A C131A | -3.34
150 | C38A C87U A107U | -4.17
151 | A37C C51U G58C C95G C118A | -3.66
152 | A39G G48A U56A C76A C79U C105U | ≤ -4.2
153 | C38A U82A G84U A120C | -1.37
154 | C38U U45G U55A A60U G71A | ≤ -4.2
155 | C38G A41U C79U G92C C123A | ≤ -4.2
156 | A37G A40U A115G A142U | ≤ -4.2
157 | A37G G81C A142C | -3.82
158 | A37C A40C G58U G94A A97U G143C | ≤ -4.2
159 | C38U G42C A52U U61G G133U | ≤ -4.2
160 | A37U A64C U135C | ≤ -4.2
161 | C38G U44A G65C | ≤ -4.2
162 | A39U U44G U109C | ≤ -4.2
163 | A39U A52G U61A A73U A115U A150C | ≤ -4.2
164 | A37C C57G C76G A98G A138C G140U | -3.42
165 | A40C A52C G81A G83A C93G | ≤ -4.2
166 | A39U A47G U139G U151G | ≤ -4.2
167 | A37G C69G | -0.726
